The results in this text go back to patent publication US20130137856A1 (published 2013).

Positions count from the first letter of the chain named.

In assay [1] the target is β2AR truncated after amino acid 365 (β2AR-365) having an amino terminal Flag epitope tag, native, … (human, UniProt P07550 1-365). The assay is described as follows: cell-based or functional assay.
Assay [2] deals with full-length human β2AR in commercial insect cell-derived membranes (human, UniProt P07550 1-413). The assay is described as follows: cell-based or functional assay.

B1: Nb71 (VHH, not shown: small tags and cut ends)
VHH: QVQLQESGGGLVQPGGSLRLSCAASGFAFSSYELRWYRQAPGKQHELVAGITTGGNTYYADSVKGRFTISRDNAKNTVYLQMSNLRPEDTAVYACNANWDLLSDYWGQGTQVTVSS
Take B1: in assay [1], the “Isoproterenol Ki, [3H]-DHA competition binding on Sf9 membranes in the presence of 1 µM nanobody (β2AR alone: 295)” value (“Isoproterenol Ki” below) came to 10.6 nM.

B2: Nb67 (VHH, not shown: small tags and cut ends)
VHH: QVQLQESGGGLVQAGGSLRLSCAASGTISSFIAMGWYRQSPGKQRELVAGITSGGETNYEDSVKGRFTISRDNAKNTLYLQMNTLKPEDTAVYYCNAQVFADIFNLINYWGQGTQVTVSS
Turning to B2, in assay [1], the “Isoproterenol Ki” value came to 19.4 nM.

B3: Nanobody-80 (Nb80) (VHH, not shown: small tags and cut ends)
VHH: QVQLQESGGGLVQAGGSLRLSCAASGSIFSINTMGWYRQAPGKQRELVAAIHSGGSTNYANSVKGRFTISRDNAANTVYLQMNSLKPEDTAVYYCNVKDYGAVLYEYDYWGQGTQVTVSS
On to B3, for which, in assay [2], the “Potency shift of CGP12177A (antagonist): IC50 with irrelevant Nb / IC50 with 500 nM Nb80, 3H-DHA competition” value amounted to 1 ratio; the “Potency shift of ICI118,551 (inverse agonist): IC50 with irrelevant Nb / IC50 with 500 nM Nb80, 3H-DHA competition” value is 0.9 ratio; the “Potency shift of alprenolol (antagonist): IC50 with irrelevant Nb / IC50 with 500 nM Nb80, 3H-DHA competition” value was found to be 1.1 ratio; the “Potency shift of carvedilol (antagonist): IC50 with irrelevant Nb / IC50 with 500 nM Nb80, 3H-DHA competition” value stood at 1.2 ratio. In assay [2], the “Potency shift of dobutamine (partial agonist): IC50 with irrelevant Nb / IC50 with 500 nM Nb80, 3H-DHA competition” value came to 2.3 ratio; the “Potency shift of fenoterol (full agonist): IC50 with irrelevant Nb / IC50 with 500 nM Nb80, 3H-DHA competition” value is 3.7 ratio; the “Potency shift of formoterol (agonist): IC50 with irrelevant Nb / IC50 with 500 nM Nb80, 3H-DHA competition” value worked out at 4 ratio; the “Potency shift of isoproterenol (agonist): IC50 with irrelevant Nb / IC50 with 500 nM Nb80, 3H-DHA competition” value turned out to be 8.8 ratio. In assay [2], the “Potency shift of metaproterenol (agonist): IC50 with irrelevant Nb / IC50 with 500 nM Nb80, 3H-DHA competition” value was 2.9 ratio; the “Potency shift of procaterol (agonist): IC50 with irrelevant Nb / IC50 with 500 nM Nb80, 3H-DHA competition” value was found to be 2.3 ratio; the “Potency shift of ritodrine (agonist): IC50 with irrelevant Nb / IC50 with 500 nM Nb80, 3H-DHA competition” value is 2.7 ratio; the “Potency shift of salbutamol (partial agonist): IC50 with irrelevant Nb / IC50 with 500 nM Nb80, 3H-DHA competition” value was determined as 4.2 ratio. In addition, in assay [2], the “Potency shift of salmeterol (full agonist): IC50 with irrelevant Nb / IC50 with 500 nM Nb80, 3H-DHA competition” value came to 3.3 ratio; the “Potency shift of terbutaline (partial agonist): IC50 with irrelevant Nb / IC50 with 500 nM Nb80, 3H-DHA competition” value was found to be 4.3 ratio; the “Potency shift of timolol (antagonist): IC50 with irrelevant Nb / IC50 with 500 nM Nb80, 3H-DHA competition” value amounted to 0.6 ratio.

B4: Nb65 (VHH, not shown: small tags and cut ends)
VHH: B3 VHH with N61D, K64R, A75K
On to B4, for which the “Isoproterenol Ki” value in assay [1] was 13.8 nM.
